Measurements published in article doi:10.1101/2024.01.22.576751 (bioRxiv, 2024).

Molecular target: the molecule itself
Experiment: cryo-EM structure

B1: Escherichia coli mechanosensitive channel of small conductance MscS, wild type (natural protein, E. coli, UniProt P0C0S1 1-286, looked up)
chain: MEDLNVVDSINGAGSWLVANQALLLSYAVNIVAALAIIIVGLIIARMISNAVNRLMISRKIDATVADFLSALVRYGIIAFTLIAALGRVGVQTASVIAVLGAAGLAVGLALQGSLSNLAAGVLLVMFRPFRAGEYVDLGGVAGTVLSVQIFSTTMRTADGKIIVIPNGKIIAGNIINFSREPVRRNEFIIGVAYDSDIDQVKQILTNIIQSEDRILKDREMTVRLNELGASSINFVVRVWSNSGDLQNVYWDVLERIKREFDAAGISFPYPQMDVNFKRVKEDKAA
- stoichiometry N: 7
